Laboratory results reported in patent US20140227251A1 (published 2014).
Residue numbers refer to the chain shown, from its start. Names may count otherwise. Blank lines part the entries; values can stand above or below the binder they belong to.

Biological target: Human TNF-α (R&D Systems) (human, UniProt P01375 77-233, labeled with Alexa Fluor 647 in the FACS assays)
Experiment: Biacore

Chain of Human TNF-α (R&D Systems) (P01375 77-233): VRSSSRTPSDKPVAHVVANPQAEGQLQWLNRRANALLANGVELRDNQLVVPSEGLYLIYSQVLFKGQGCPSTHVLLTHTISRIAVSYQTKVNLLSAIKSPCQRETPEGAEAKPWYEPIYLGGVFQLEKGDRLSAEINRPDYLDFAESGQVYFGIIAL

Kd: 149 pM
B1: D2E7 combination variant Y32K/SS-R30I (antibody, V domains shown)
VH: not shown
VL: DIQMTQSPSSLSASVGDRVTITCRASQSIINYLSWYQQKPGKAPKLLIYAASTLQSGVPSRFSGSGSGTDFTLTISSLQPEDVATYYCQRYNRAPYTFGQGTKVEIK

Kd: 130 pM
B2: D2E7 combination variant Y32K/SS-R30T (antibody, V domains shown)
VH: not shown
VL: B1 VL with I30T
